Data from article PMC2920069, “KTN (RCK) Domains Regulate K^+ Channels and Transporters by Controlling the Dimer-Hinge Conformation” (Structure(London, England:1993), 2009).

B1: full-length recombinant KefC (natural protein, E. coli, UniProt P03819 1-620, looked up)
chain: MDSHTLIQALIYLGSAALIVPIAVRLGLGSVLGYLIAGCIIGPWGLRLVTDAESILHFAEIGVVLMLFIIGLELDPQRLWKLRAAVFGCGALQMVICGGLLGLFCMLLGLRWQVAELIGMTLALSSTAIAMQAMNERNLMVTQMGRSAFAVLLFQDIAAIPLVAMIPLLATSSASTTMGAFALSALKVAGALVLVVLLGRYVTRPALRFVARSGLREVFSAVALFLVFGFGLLLEEVGLSMAMGAFLAGVLLASSEYRHALESDIEPFKGLLLGLFFIGVGMSIDFGTLLENPLRIVILLLGFLIIKIAMLWLIARPLQVPNKQRRWFAVLLGQGSEFAFVVFGAAQMANVLEPEWAKSLTLAVALSMAATPILLVILNRLEQSSTEEAREADEIDEEQPRVIIAGFGRFGQITGRLLLSSGVKMVVLDHDPDHIETLRKFGMKVFYGDATRMDLLESAGAAKAEVLINAIDDPQTNLQLTEMVKEHFPHLQIIARARDVDHYIRLRQAGVEKPERETFEGALKTGRLALESLGLGPYEARERADVFRRFNIQMVEEMAMVENDTKARAAVYKRTSAMLSEIITEDREHLSLIQRHGWQGTEEGKHTGNMADEPETKPSS
notes: E. coli KefC glutathione-gated K+ efflux system, full length; Blue native PAGE was done without KefF; Also used here as the wild-type KefC of the efflux experiments (plasmids pSM12 and pKefFKefCHis6 in E. coli MJF335); also called whole KefC channels; source: E. coli, overexpressed, bacterial membranes solubilized with 1.5% dodecylmaltoside
B2: KefC-CTD:KefF fusion protein (complex, E. coli)
chain: RVIIAGFGRFGQITGRLLLSSGVKMVVLDHDPDHIETLRKFGMKVFYGDATRMDLLESAGAAKAEVLINAIDDPQTNLQLTEMVKEHFPHLQIIARARDVDHYIRLRQAGVEKPERETFEGALKTGRLALESLGLGPYEARERADVFRRFNIQMVEEMAMVENDTKARAAVYKRTSAMLSEIITEDREHLSLIQRHGWQGTEEGKHTGNMADEPETKPSSTSGGLVPRGSSGMILIIYAHPYPHHSHANKRMLEQARTLEGVEIRSLYQLYPDFNIDIAAEQEALSRADLIVWQHPMQWYSIPPLLKLWIDKVFSHGWAYGHGGTALHGKHLLWAVTTGGGESHFEIGAHPGFDVLSQPLQATAIYCGLNWLPPFAMHCTFICDDETLEGQARHYKQRLLEWQEAHHG
notes: synthetic flexible 12-residue linker with a thrombin motif that is not cleaved under the conditions used; KefF, ancillary subunit of the E. coli KefC system, full length; pET-28-derived vector; tag removed with thrombin overnight at 4 °C; also called KefC-CTD/KefF complex; fusion complex; source: E. coli BL21(DE3), purified (Ni-NTA with imidazole gradient, Superdex 200 gel filtration); not shown: …

Columns and labels:
[1] = molecular target: the molecule itself; test: native gel or EMSA; blue native PAGE (Novex 4-16% BisTris) of membranes solubilized with 1.5% dodecylmaltoside, without KefF; western blot with anti-His6; factor 1.8 for true mass:mobility-based mass
[2] = molecular target: the molecule itself; test: SEC-MALS; size exclusion chromatography with in-line MiniDAWN TREOS light scattering and refractive index detection; 50 mM HEPES pH 7.5, 150 mM KCl, 1 mM DTT or TCEP; with and without GSH, S-lactoyl-GSH or N-ethylsuccinimido-S-glutathione and NAD+ or NADH (1 mM)

Row | Protein | stoichiometry N [1] | stoichiometry N [2]
1 | B1 | 2 | 
2 | B2 |  | 2
